Data: publication doi:10.1101/2022.05.16.492121 (bioRxiv, 2022)

Molecular target: the molecule itself
Experiment: near-TIRF microscopy

B1: Saccharomyces cerevisiae septin complex (Cdc3, Cdc10, Cdc11, Cdc12), polymerizable hetero-oligomer (complex)
chain 1: MSLKEEQVSIKQDPEQEERQHDQFNDVQIKQESQDHDGVDSQYTNGTQNDDSERFEAAESDVKVEPGLGMGITSSQSEKGQVLPDQPEIKFIRRQINGYVGFANLPKQWHRRSIKNGFSFNLLCVGPDGIGKTTLMKTLFNNDDIEANLVKDYEEELANDQEEEEGQGEGHENQSQEQRHKVKIKSYESVIEENGVKLNLNVIDTEGFGDFLNNDQKSWDPIIKEIDSRFDQYLDAENKINRHSINDKRIHACLYFIEPTGHYLKPLDLKFMQSVYEKCNLIPVIAKSDILTDEEILSFKKTIMNQLIQSNIELFKPPIYSNDDAENSHLSERLFSSLPYAVIGSNDIVENYSGNQVRGRSYPWGVIEVDNDNHSDFNLLKNLLIKQFMEELKERTSKILYENYRSSKLAKLGIKQDNSVFKEFDPISKQQEEKTLHEAKLAKLEIEMKTVFQQKVSEKEKKLQKSETELFARHKEMKEKLTKQLKALEDKKKQLELSINSASPNVNHSPVPTKKKGFLR
chain 2: MDPLSSVQPASYVGFDTITNQIEHRLLKKGFQFNIMVVGQSGLGKSTLINTLFASHLIDSATGDDISALPVTKTTEMKISTHTLVEDRVRLNINVIDTPGFGDFIDNSKAWEPIVKYIKEQHSQYLRKELTAQRERFITDTRVHAILYFLQPNGKELSRLDVEALKRLTEIANVIPVIGKSDTLTLDERTEFRELIQNEFEKYNFKIYPYDSEELTDEELELNRSVRSIIPFAVVGSENEIEINGETFRGRKTRWSAINVEDINQCDFVYLREFLIRTHLQDLIETTSYIHYEGFRARQLIALKENANSRSSAHMSSNAIQR
chain 3: MSGIIDASSALRKRKHLKRGITFTVMIVGQSGSGRSTFINTLCGQQVVDTSTTILLPTDTSTEIDLQLREETVELEDDEGVKIQLNIIDTPGFGDSLDNSPSFEIISDYIRHQYDEILLEESRVRRNPRFKDGRVHCCLYLINPTGHGLKEIDVEFIRQLGSLVNIIPVISKSDSLTRDELKLNKKLIMEDIDRWNLPIYNFPFDEDEISDEDYETNMYLRTLLPFAIIGSNEVYEMGGDVGTIRGRKYPWGILDVEDSSISDFVILRNALLISHLHDLKNYTHEILYERYRTEALSGESVAAESIRPNLTKLNGSSSSSTTTRRNTNPFKQSNNINNDVLNPASDMHGQSTGENNETYMTREEQIRLEEERLKAFEERVQQELLLKRQELLQREKELREIEARLEKEAKIKQEE
chain 4: MSAATATAAPVPPPVGISNLPNQRYKIVNEEGGTFTVMLCGESGLGKTTFINTLFQTVLKRADGQQHRQEPIRKTVEIDITRALLEEKHFELRVNVIDTPGFGDNVNNNKAWQPLVDFIDDQHDSYMRQEQQPYRTKKFDLRVHAVLYFIRPTGHGLKPIDIETMKRLSTRANLIPVIAKADTLTAQELQQFKSRIRQVIEAQEIRIFTPPLDADSKEDAKSGSNPDSAAVEHARQLIEAMPFAIVGSEKKFDNGQGTQVVARKYPWGLVEIENDSHCDFRKLRALLLRTYLLDLISTTQEMHYETYRRLRLEGHENTGEGNEDFTLPAIAPARKLSHNPRYKEEENALKKYFTDQVKAEEQRFRQWEQNIVNERIRLNGDLEEIQGKVKKLEEQVKSLQVKKSHLK
binding result: binds
